# Assay results taken from patent publication US20190263889A1.
# Values joined by “and” are separate entries in the source; they are usually repeats but may differ in a detail not shown here. Identical values can stand only once.
# Tests used:
# [1] = target: CTLA-4Fc mutant protein M8 (human (murine residues substituted)); assay: ELISA; binder 10 ng/ml on coated target
# [2] = target: wild type human CTLA-4Fc fusion protein (abatacept) (human); assay: ELISA; binder 10 ng/ml on coated target
# [3] = target: CTLA-4Fc mutant protein M1 (human (murine residues substituted)); assay: ELISA; binder 10 ng/ml on coated target
# [4] = target: CTLA-4Fc mutant protein M10 (human (murine residues substituted)); assay: ELISA; binder 10 ng/ml on coated target
# [5] = target: CTLA-4Fc mutant protein M7 (human (murine residues substituted)); assay: ELISA; binder 10 ng/ml on coated target
# [6] = target: CTLA-4Fc mutant protein M2 (human (murine residues substituted)); assay: ELISA; binder 10 ng/ml on coated target
# [7] = target: CTLA-4Fc mutant protein M5 (human (murine residues substituted)); assay: ELISA; binder 10 ng/ml on coated target
# [8] = target: CTLA-4Fc mutant protein M11 (human (murine residues substituted)); assay: ELISA; binder 10 ng/ml on coated target
# [9] = target: CTLA-4Fc mutant protein M9 (human (murine residues substituted)); assay: ELISA; binder 10 ng/ml on coated target
# [10] = target: CTLA-4Fc mutant protein M4 (human (murine residues substituted)); assay: ELISA; binder 10 ng/ml on coated target
# [11] = target: CTLA-4Fc mutant protein M3 (human (murine residues substituted)); assay: ELISA; binder 10 ng/ml on coated target
# [12] = target: CTLA-4Fc mutant protein M6 (human (murine residues substituted)); assay: ELISA; binder 10 ng/ml on coated target
# [13] = target: CTLA-4Fc mutant protein M8 (human (murine residues substituted)); assay: ELISA; binder 100 ng/ml on coated target
# [14] = target: CTLA-4Fc mutant protein M1 (human (murine residues substituted)); assay: ELISA; binder 100 ng/ml on coated target
# [15] = target: CTLA-4Fc mutant protein M10 (human (murine residues substituted)); assay: ELISA; binder 100 ng/ml on coated target
# [16] = target: CTLA-4Fc mutant protein M7 (human (murine residues substituted)); assay: ELISA; binder 100 ng/ml on coated target
# [17] = target: human IgG1-Fc control (human) [IgG part: P01857]; assay: ELISA; binder 100 ng/ml on coated target
# [18] = target: CTLA-4Fc mutant protein M5 (human (murine residues substituted)); assay: ELISA; binder 100 ng/ml on coated target
# [19] = target: CTLA-4Fc mutant protein M9 (human (murine residues substituted)); assay: ELISA; binder 100 ng/ml on coated target
# [20] = target: CTLA-4Fc mutant protein M4 (human (murine residues substituted)); assay: ELISA; binder 100 ng/ml on coated target
# [21] = target: CTLA-4Fc mutant protein M3 (human (murine residues substituted)); assay: ELISA; binder 100 ng/ml on coated target
# mouse CTLA-4-Fc (mouse) = mouse CTLA-4-Fc (mouse) (UniProt P09793); assay: ELISA; binder 0 (blank) on coated target
# [22] = target: wild type human CTLA-4Fc fusion protein (abatacept) (human); assay: ELISA; binder 0 (blank) on coated target
# [23] = target: CTLA-4Fc mutant protein M1 (human (murine residues substituted)); assay: ELISA; binder 0 (blank) on coated target
# [24] = target: CTLA-4Fc mutant protein M7 (human (murine residues substituted)); assay: ELISA; binder 0 (blank) on coated target
# [25] = target: human IgG1-Fc control (human) [IgG part: P01857]; assay: ELISA; binder 0 (blank) on coated target
# [26] = target: CTLA-4Fc mutant protein M2 (human (murine residues substituted)); assay: ELISA; binder 0 (blank) on coated target
# [27] = target: CTLA-4Fc mutant protein M5 (human (murine residues substituted)); assay: ELISA; binder 0 (blank) on coated target
# [28] = target: CTLA-4Fc mutant protein M9 (human (murine residues substituted)); assay: ELISA; binder 0 (blank) on coated target
# [29] = target: CTLA-4Fc mutant protein M4 (human (murine residues substituted)); assay: ELISA; binder 0 (blank) on coated target
# [30] = target: CTLA-4Fc mutant protein M3 (human (murine residues substituted)); assay: ELISA; binder 0 (blank) on coated target
# [31] = target: CTLA-4Fc mutant protein M6 (human (murine residues substituted)); assay: ELISA; binder 0 (blank) on coated target
# [32] = target: CTLA-4Fc mutant protein M8 (human (murine residues substituted)); assay: ELISA; binder 0 (blank) on coated target
# [33] = target: wild type human CTLA-4Fc fusion protein (abatacept) (human); assay: ELISA; binder 0 (blank) on coated target; remark: listed apart in the source
# [34] = target: CTLA-4Fc mutant protein M1 (human (murine residues substituted)); assay: ELISA; binder 0 (blank) on coated target; remark: listed apart in the source
# [35] = target: CTLA-4Fc mutant protein M10 (human (murine residues substituted)); assay: ELISA; binder 0 (blank) on coated target
# [36] = target: CTLA-4Fc mutant protein M7 (human (murine residues substituted)); assay: ELISA; binder 0 (blank) on coated target; remark: listed apart in the source
# [37] = target: CTLA-4Fc mutant protein M2 (human (murine residues substituted)); assay: ELISA; binder 0 (blank) on coated target; remark: listed apart in the source
# [38] = target: CTLA-4Fc mutant protein M5 (human (murine residues substituted)); assay: ELISA; binder 0 (blank) on coated target; remark: listed apart in the source
# [39] = target: CTLA-4Fc mutant protein M11 (human (murine residues substituted)); assay: ELISA; binder 0 (blank) on coated target
# [40] = target: CTLA-4Fc mutant protein M9 (human (murine residues substituted)); assay: ELISA; binder 0 (blank) on coated target; remark: listed apart in the source
# [41] = target: CTLA-4Fc mutant protein M4 (human (murine residues substituted)); assay: ELISA; binder 0 (blank) on coated target; remark: listed apart in the source
# [42] = target: CTLA-4Fc mutant protein M3 (human (murine residues substituted)); assay: ELISA; binder 0 (blank) on coated target; remark: listed apart in the source
# [43] = target: CTLA-4Fc mutant protein M6 (human (murine residues substituted)); assay: ELISA; binder 0 (blank) on coated target; remark: listed apart in the source
# Chain of CTLA-4Fc mutant protein M11 (human (murine residues substituted)) (chain, as listed by the source mutant): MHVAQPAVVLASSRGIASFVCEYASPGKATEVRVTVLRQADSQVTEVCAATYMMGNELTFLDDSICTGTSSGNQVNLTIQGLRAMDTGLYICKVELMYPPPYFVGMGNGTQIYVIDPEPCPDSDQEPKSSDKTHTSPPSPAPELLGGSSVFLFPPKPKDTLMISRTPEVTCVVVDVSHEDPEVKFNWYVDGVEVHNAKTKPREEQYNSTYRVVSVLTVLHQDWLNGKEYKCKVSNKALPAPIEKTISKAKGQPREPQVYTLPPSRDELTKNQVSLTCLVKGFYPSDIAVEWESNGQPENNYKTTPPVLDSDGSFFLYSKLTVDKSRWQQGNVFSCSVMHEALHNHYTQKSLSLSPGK
# Chain of CTLA-4Fc mutant protein M5 (human (murine residues substituted)) (chain, as listed by the source mutant): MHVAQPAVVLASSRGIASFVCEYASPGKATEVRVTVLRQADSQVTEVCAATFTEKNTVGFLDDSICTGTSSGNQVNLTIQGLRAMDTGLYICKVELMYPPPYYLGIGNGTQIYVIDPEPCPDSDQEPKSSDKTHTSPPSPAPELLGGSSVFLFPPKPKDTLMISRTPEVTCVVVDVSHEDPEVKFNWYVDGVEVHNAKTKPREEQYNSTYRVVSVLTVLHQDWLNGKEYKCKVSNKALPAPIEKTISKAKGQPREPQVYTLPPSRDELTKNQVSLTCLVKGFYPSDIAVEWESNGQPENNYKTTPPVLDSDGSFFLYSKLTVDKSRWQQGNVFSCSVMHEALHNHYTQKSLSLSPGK
# Chain of CTLA-4Fc mutant protein M8 (human (murine residues substituted)) (chain, as listed by the source mutant): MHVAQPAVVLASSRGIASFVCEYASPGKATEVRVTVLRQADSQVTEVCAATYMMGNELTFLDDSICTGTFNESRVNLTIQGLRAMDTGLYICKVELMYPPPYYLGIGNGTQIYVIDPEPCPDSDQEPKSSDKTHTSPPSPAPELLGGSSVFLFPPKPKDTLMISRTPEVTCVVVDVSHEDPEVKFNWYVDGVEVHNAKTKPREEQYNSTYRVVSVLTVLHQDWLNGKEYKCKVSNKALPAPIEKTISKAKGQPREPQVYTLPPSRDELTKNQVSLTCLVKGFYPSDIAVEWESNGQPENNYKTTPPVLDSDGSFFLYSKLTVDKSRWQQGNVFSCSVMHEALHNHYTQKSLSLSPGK
# Chain of CTLA-4Fc mutant protein M3 (human (murine residues substituted)) (chain, as listed by the source mutant): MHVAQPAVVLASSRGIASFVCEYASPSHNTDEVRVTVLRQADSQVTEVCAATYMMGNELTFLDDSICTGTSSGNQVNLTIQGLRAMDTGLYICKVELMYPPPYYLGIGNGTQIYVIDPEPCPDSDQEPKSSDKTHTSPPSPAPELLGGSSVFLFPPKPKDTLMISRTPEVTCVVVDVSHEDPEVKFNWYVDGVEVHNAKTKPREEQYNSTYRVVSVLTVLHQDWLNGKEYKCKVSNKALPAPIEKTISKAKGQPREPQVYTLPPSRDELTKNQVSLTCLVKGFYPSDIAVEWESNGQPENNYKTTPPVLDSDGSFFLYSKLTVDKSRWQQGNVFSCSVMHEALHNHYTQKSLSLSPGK
# Chain of CTLA-4Fc mutant protein M4 (human (murine residues substituted)) (chain, as listed by the source mutant): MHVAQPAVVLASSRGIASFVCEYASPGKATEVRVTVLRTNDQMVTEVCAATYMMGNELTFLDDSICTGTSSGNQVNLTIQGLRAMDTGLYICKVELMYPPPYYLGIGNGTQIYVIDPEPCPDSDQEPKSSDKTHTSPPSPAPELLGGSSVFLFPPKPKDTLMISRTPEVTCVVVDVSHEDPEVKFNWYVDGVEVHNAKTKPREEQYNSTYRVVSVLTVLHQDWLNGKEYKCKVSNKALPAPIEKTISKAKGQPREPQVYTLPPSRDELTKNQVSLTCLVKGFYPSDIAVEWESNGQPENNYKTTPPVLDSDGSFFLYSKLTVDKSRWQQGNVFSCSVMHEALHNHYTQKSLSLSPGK
# Chain of CTLA-4Fc mutant protein M9 (human (murine residues substituted)) (chain, as listed by the source mutant): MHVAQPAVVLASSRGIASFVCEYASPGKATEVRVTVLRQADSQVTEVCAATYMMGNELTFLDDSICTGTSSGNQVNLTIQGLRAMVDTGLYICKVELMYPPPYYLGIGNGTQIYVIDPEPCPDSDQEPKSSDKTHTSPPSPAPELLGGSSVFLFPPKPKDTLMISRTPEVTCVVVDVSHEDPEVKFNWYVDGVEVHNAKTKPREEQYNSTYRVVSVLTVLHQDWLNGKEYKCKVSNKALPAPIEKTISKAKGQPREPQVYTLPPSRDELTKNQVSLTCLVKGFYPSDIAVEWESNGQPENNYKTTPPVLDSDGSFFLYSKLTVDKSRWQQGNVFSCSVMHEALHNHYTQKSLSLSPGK
# Chain of wild type human CTLA-4Fc fusion protein (abatacept) (human) (chain, as listed by the source limits assumed): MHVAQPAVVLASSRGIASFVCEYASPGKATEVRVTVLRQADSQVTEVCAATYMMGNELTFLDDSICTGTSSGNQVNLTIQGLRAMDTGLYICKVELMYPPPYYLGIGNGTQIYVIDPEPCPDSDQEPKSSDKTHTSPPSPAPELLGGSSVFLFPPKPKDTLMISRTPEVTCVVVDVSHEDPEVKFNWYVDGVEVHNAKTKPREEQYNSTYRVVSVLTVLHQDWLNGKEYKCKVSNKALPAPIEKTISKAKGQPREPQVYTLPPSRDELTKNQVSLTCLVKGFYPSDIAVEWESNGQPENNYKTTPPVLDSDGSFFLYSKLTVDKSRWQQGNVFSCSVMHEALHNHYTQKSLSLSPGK
# Chain of CTLA-4Fc mutant protein M10 (human (murine residues substituted)) (chain, as listed by the source mutant): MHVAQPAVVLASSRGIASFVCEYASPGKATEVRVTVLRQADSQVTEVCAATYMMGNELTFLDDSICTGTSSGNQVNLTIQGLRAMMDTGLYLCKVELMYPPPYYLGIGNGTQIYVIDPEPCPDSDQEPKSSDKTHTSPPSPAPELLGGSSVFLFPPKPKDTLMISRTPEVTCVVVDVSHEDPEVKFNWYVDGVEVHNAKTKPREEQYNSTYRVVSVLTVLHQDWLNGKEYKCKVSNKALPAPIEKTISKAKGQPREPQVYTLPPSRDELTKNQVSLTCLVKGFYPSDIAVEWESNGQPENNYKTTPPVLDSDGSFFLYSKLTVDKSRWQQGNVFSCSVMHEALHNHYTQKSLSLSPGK
# Chain of CTLA-4Fc mutant protein M7 (human (murine residues substituted)) (chain, as listed by the source mutant): as the sequence (chain, as listed by the source limits assumed) above, with D63Y, S64P, I65F, T67S counted along it
# Chain of CTLA-4Fc mutant protein M1 (human (murine residues substituted)) (chain, as listed by the source mutant): as the sequence (chain, as listed by the source limits assumed) above, with M1I, H2Q, A4T, A7S counted along it
# Chain of CTLA-4Fc mutant protein M6 (human (murine residues substituted)) (chain, as listed by the source mutant): as the sequence (chain, as listed by the source limits assumed) above, with A50T counted along it
# Chain of CTLA-4Fc mutant protein M2 (human (murine residues substituted)) (chain, as listed by the source mutant): as the sequence (chain, as listed by the source limits assumed) above, with R14H, I16L, V20P counted along it
# Chain of mouse CTLA-4-Fc (mouse) (P09793 36-161 limits assumed): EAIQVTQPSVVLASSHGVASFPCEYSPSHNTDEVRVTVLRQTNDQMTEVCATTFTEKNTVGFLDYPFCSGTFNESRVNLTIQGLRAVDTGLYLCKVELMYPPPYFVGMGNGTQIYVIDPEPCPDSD
substance,measurement,setting,value
chimeric L3D10 anti-human CTLA-4 antibody,OD450,[1],1.23 OD450 and 1.24 OD450
same,OD450,[2],1.43 OD450 and 1.52 OD450
same,OD450,[3],2.47 OD450 and 2.43 OD450
same,OD450,[4],0.18 OD450 and 0.169 OD450
same,OD450,[5],0.714 OD450 and 0.738 OD450
same,OD450,[6],0.375 OD450 and 0.317 OD450
same,OD450,[7],1.54 OD450 and 1.37 OD450
same,OD450,[8],0.202 OD450 and 0.203 OD450
same,OD450,[9],0.18 OD450 and 0.171 OD450
same,OD450,[10],0.507 OD450 and 0.356 OD450
same,OD450,[11],0.62 OD450 and 0.587 OD450
same,OD450,[12],1.03 OD450 and 0.976 OD450
same,OD450,[13],3.02 OD450 and 3.16 OD450
same,OD450,[14],3.19 OD450 and 3.57 OD450
same,OD450,[15],0.26 OD450 and 0.272 OD450
same,OD450,[16],2.67 OD450 and 2.88 OD450
same,OD450,[17],0.315 OD450 and 0.326 OD450
same,OD450,[18],3.25 OD450 and 3.32 OD450
same,OD450,[19],0.419 OD450 and 0.346 OD450
same,OD450,[20],2.23 OD450 and 2.36 OD450
same,OD450,[21],2.24 OD450 and 2.54 OD450
same,OD450,mouse CTLA-4-Fc (mouse),0.19 OD450 and 0.189 OD450
same,OD450,[22],0.18 OD450 and 0.177 OD450
same,OD450,[23],0.222 OD450
same,OD450,[24],0.186 OD450 and 0.142 OD450
same,OD450,[25],0.198 OD450 and 0.184 OD450
same,OD450,[26],0.377 OD450 and 0.538 OD450
same,OD450,[27],0.177 OD450 and 0.229 OD450
same,OD450,[28],0.15 OD450 and 0.293 OD450
same,OD450,[29],0.22 OD450 and 0.18 OD450
same,OD450,[30],0.183 OD450 and 0.167 OD450
same,OD450,[31],0.183 OD450 and 0.177 OD450
same,OD450,[32],0.187 OD450 and 0.17 OD450
same,OD450,[33],0.202 OD450 and 0.195 OD450
same,OD450,[34],0.196 OD450 and 0.187 OD450
same,OD450,[35],0.179 OD450 and 0.166 OD450
same,OD450,[36],0.198 OD450 and 0.176 OD450
same,OD450,[37],0.2 OD450 and 0.185 OD450
same,OD450,[38],0.189 OD450 and 0.176 OD450
same,OD450,[39],0.183 OD450 and 0.167 OD450
same,OD450,[40],0.179 OD450 and 0.166 OD450
same,OD450,[41],0.184 OD450 and 0.176 OD450
same,OD450,[42],0.187 OD450 and 0.18 OD450
same,OD450,[43],0.192 OD450 and 0.176 OD450
